Assay results from paper PMC5726920.

T1: heart isozyme of murine fatty acid binding protein (mouse), P11404
T1 chain: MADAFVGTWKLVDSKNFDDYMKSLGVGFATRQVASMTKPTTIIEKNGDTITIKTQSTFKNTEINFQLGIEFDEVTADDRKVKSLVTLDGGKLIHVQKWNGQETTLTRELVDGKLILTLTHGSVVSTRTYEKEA

T2: protein deglycase DJ-1, Q99497
T2 chain: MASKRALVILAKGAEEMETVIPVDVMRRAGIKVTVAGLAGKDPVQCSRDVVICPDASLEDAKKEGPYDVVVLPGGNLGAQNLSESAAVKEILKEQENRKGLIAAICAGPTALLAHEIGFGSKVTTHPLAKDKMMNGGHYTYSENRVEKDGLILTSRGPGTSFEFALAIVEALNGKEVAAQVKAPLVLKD


Legend:
[1] = target: T1, heart isozyme of murine fatty acid …; test: native MS; conditions: remark: other sources report otherwise
[2] = target: T2, protein deglycase DJ-1, Q99497; test: native MS; conditions: remark: other sources report otherwise

stoichiometry N [1]	stoichiometry N [2]	Binder
2		heart isozyme of murine fatty acid binding protein, P11404 1-133 (natural protein) MADAFVGTWKLVDSKNFDDYMKSLGVGFATRQVASMTKPTTIIEKNGDTITIKTQSTFKNTEINFQLGIEFDEVTADDRKVKSLVTLDGGKLIHVQKWNGQETTLTRELVDGKLILTLTHGSVVSTRTYEKEA
	2	protein deglycase DJ-1, Q99497 1-189 (enzyme) MASKRALVILAKGAEEMETVIPVDVMRRAGIKVTVAGLAGKDPVQCSRDVVICPDASLEDAKKEGPYDVVVLPGGNLGAQNLSESAAVKEILKEQENRKGLIAAICAGPTALLAHEIGFGSKVTTHPLAKDKMMNGGHYTYSENRVEKDGLILTSRGPGTSFEFALAIVEALNGKEVAAQVKAPLVLKD
